Key:
[1] = target: S-formylglutathione hydrolase (SfSFGH) from Shewanella frigidimarina (Shewanella frigidimarina); experiment: AUC; SfSFGH in 150 mM NaCl, 20 mM Tris-HCl pH 8.0, 20 °C, 40,000 rpm, monitored at 280 nm, analysed with SEDFIT
purified protein [2] = substrate: CC(=O)Oc1ccc([N+](=O)[O-])cc1; experiment: purified protein; type: biochemical, Shewanella frigidimarina; conditions: 20 mM Tris-HCl pH 8.0, 120 mM NaCl, room temperature
purified protein [3] = substrate: CCCC(=O)Oc1ccc([N+](=O)[O-])cc1; experiment: purified protein; type: biochemical, Shewanella frigidimarina; conditions: 20 mM Tris-HCl pH 8.0, 120 mM NaCl, room temperature
purified protein [4] = substrate: CCCCCCCC(=O)Oc1ccc([N+](=O)[O-])cc1; experiment: purified protein; type: biochemical, Shewanella frigidimarina; conditions: 20 mM Tris-HCl pH 8.0, 120 mM NaCl, room temperature

S-formylglutathione hydrolase (SfSFGH) from Shewanella frigidimarina (enzyme)
stoichiometry N [1]: 2

B1: SfSFGH (Shewanella frigidimarina NCIMB 400) (protein)
chain: MTIENMSVNKSFGGWHKQYSHQSQTLNCEMRFAIYLPPQASSGKKVPVLYWLSGLTCTDENFMQKAGAQALAAELGIAIVAPDTSPRGENVADDEGYDLGKGAGFYVNATQAPWNRHYRMYDYVVDELPKLIESMFPVSDKRSIAGHSMGGHGALVIALRNADAYQSVSAFSPISNPINCPWGKKALTAYLGRDSATWMEYDASVLMRQATQFVPALVDQGDADNFLVEQLKPEVLEAAAKVKGYPLELNYREGYDHSYYFISSFIENHLRFHAEHLGK
Km (purified protein [2]): 515 (± 42.8) µM
kcat (purified protein [2]): 0.310 (± 0.0258) s^-1

B2: SfSFGH (Shewanella frigidimarina NCIMB 400; W182A) (protein)
chain: MTIENMSVNKSFGGWHKQYSHQSQTLNCEMRFAIYLPPQASSGKKVPVLYWLSGLTCTDENFMQKAGAQALAAELGIAIVAPDTSPRGENVADDEGYDLGKGAGFYVNATQAPWNRHYRMYDYVVDELPKLIESMFPVSDKRSIAGHSMGGHGALVIALRNADAYQSVSAFSPISNPINCPAGKKALTAYLGRDSATWMEYDASVLMRQATQFVPALVDQGDADNFLVEQLKPEVLEAAAKVKGYPLELNYREGYDHSYYFISSFIENHLRFHAEHLGK
Km (purified protein [2]): 1.393 ± 0.136 mM
Vmax (purified protein [2]): 323 µM/min
kcat (purified protein [2]): 1.85 ± 0.092 s⁻¹
kcat/Km (purified protein [2]): 1300 M⁻¹ s⁻¹
Km (purified protein [3]): 303 ± 49 µM
Vmax (purified protein [3]): 51.7 µM/min
kcat (purified protein [3]): 8 ± 0.326 s⁻¹
kcat/Km (purified protein [3]): 26400 M⁻¹ s⁻¹
Km (purified protein [4]): 495 ± 85 µM
Vmax (purified protein [4]): 28.6 µM/min
kcat (purified protein [4]): 0.144 ± 0.007 s⁻¹
kcat/Km (purified protein [4]): 300 M⁻¹ s⁻¹
